Data from patent US20090017041A1.

What was measured:
[1] = target: low molecular weight (LMW) monomeric preparation of the Aβ1-42 peptide (Example 15) (human); test: ELISA, fraction coated at 2 µM; antibody 0.0078 µg/ml
[2] = target: monomer-enriched preparation of the Aβ1-42 peptide (Example 16); test: ELISA, fraction coated at 2.2 µM; antibody dilution 1:128 (start 0.5 µg/ml)
[3] = target: oligomer-enriched preparation of the Aβ1-42 peptide (Example 16); test: as above
[4] = target: monomer-enriched preparation of the Aβ1-42 peptide (Example 16); test: ELISA, fraction coated at 2.2 µM; assay 2; antibody dilution 1:4 (start 0.5 µg/ml)
[5] = target: oligomer-enriched preparation of the Aβ1-42 peptide (Example 16); test: as above
[6] = target: oligomer-enriched preparation of the Aβ1-42 peptide (Example 16); test: ELISA, fraction coated at 2.2 µM; assay 2; antibody dilution 1:8 (start 0.5 µg/ml)
[7] = target: monomer-enriched preparation of the Aβ1-42 peptide (Example 16); test: ELISA, fraction coated at 2.2 µM; assay 3; antibody dilution 1:2 (start 0.5 µg/ml)
[8] = target: oligomer-enriched preparation of the Aβ1-42 peptide (Example 16); test: as above
[9] = target: monomer-enriched preparation of the Aβ1-42 peptide (Example 16); test: ELISA, fraction coated at 2.2 µM; assay 3; antibody dilution 1:16 (start 0.5 µg/ml)
[10] = target: oligomer-enriched preparation of the Aβ1-42 peptide (Example 16); test: as above

monomer-enriched preparation of the Aβ1-42 peptide (Example 16), sequence (peptide, as listed by the source): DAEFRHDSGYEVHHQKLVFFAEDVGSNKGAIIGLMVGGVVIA
oligomer-enriched preparation of the Aβ1-42 peptide (Example 16), sequence (peptide, as listed by the source): as above
low molecular weight (LMW) monomeric preparation of the Aβ1-42 peptide (Example 15) (human), sequence (peptide, as listed by the source): as above

O.D. (405 nm) [1]: 0.133 O.D.
O.D. (405 nm), mean of 3 assays [2]: 0.75 O.D.
O.D. (405 nm), mean of 3 assays [3]: 0.63 O.D.
O.D. (405 nm) [4]: 3.29 O.D.
O.D. (405 nm) [5]: 3.37 O.D.
O.D. (405 nm) [6]: 2.99 O.D.
O.D. (405 nm) [7]: 4 O.D.
O.D. (405 nm) [8]: 3.83 O.D.
O.D. (405 nm) [9]: 2.23 O.D.
O.D. (405 nm) [10]: 2.07 O.D.
Substance: 6E10 control antibody
